These results are taken from patent publication US20190330346A1 (REMD BIOTHERAPEUTICS, published 2019).

One assay addresses T1, murine PD-1 (murine, UniProt Q02242 25-167, limits assumed).
T1 construct: also called mouse PD-1
T1 sequence (looked up): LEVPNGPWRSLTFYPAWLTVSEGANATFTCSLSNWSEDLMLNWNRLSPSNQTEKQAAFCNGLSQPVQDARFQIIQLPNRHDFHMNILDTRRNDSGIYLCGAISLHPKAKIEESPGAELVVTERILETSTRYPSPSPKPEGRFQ
The assay is described as follows: murine PD-1 binding ELISA. (An ELISA detects its analyte on a solid surface through an enzyme-linked reagent.)

Assay [1] deals with T2, His-tagged human PD-1 protein (human, UniProt Q15116 25-170, limits assumed).
T2 construct: SPR analyte; also called his-tagged antigen PD-1; not shown: His tag
T2 sequence (Q15116 25-170 limits assumed): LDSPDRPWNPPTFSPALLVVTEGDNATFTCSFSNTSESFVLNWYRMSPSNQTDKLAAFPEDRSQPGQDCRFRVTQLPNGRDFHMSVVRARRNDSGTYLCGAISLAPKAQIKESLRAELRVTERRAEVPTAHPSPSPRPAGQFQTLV
The assay is described as follows: SPR; Fab-SASA captured on immobilised BSA, his-tagged PD-1 as analyte. As for the experimental part: For affinity ranking, BSA was immobilized onto the sensor chip using amine coupling method. The selected Fab-SASA secreted to the culture medium was injected and captured by BSA through the tight binding between BSA and SASA (capture phase). After equilibration, his-tagged antigen PD-1 was injected for 300 seconds (association phase) followed by the injection of running buffer for 900 seconds (dissociation phase). The surface was regenerated before the injection of another three Fab-SASA clones. The process was repeated until all selected Fab-SASA proteins were analyzed. Responses of reference flow cell were subtracted from those of Fab-SASA flow cells during each cycle. The antibodies were ranked by their dissociation rate constants (off-rates, […]). […]

Assay [2] addresses T3, human PD-1 (human, UniProt Q15116 25-167).
T3 construct: The immunogen was PD1/Fc (Leu25-Gln167 fused to human IgG1 Pro100-Lys330); also called huPD-1; hPD-1
The assay is described as follows: SPR, multiple-cycle, crude Fab from E. coli; antigen form not stated. An excerpt:
(§1) A homology model of mouse anti-PD1 Fv was built wherein putative back mutation sites (i.e., buried residues of the frameworks that are different in the mouse and human acceptor sequences) were identified. There were a total of 14 putative back mutation sites. A variant humanized Fab comprising all 14 of the putative back mutation sites of PD1-grafted Ab mutated back to their mouse counterparts (hereinafter identified as “PD1-BM Ab”) comprising the heavy chain variable region sequence set forth in SEQ ID NO: 38 and the light chain variable region sequence set forth in SEQ ID NO: 39, was synthesized. In addition, 14 variants of PD1-BM Ab (hereinafter identified as Fabs 1-14), each having at least one of the putative 14 back mutation sites in PD1-BM Ab mutated back to the human counterpart, were synthesized. These constructs were used to transform E. coli TG1 strain. Single colonies were pick for each individual construct and grown in E. coli medium. Crude chimeric and humanized Fabs were collected and subjected to multiple-cycle affinity estimation by Surface Plasmon Resonance (SPR).
In general terms: Surface plasmon resonance follows binding to a sensor surface in real time, without labels.

For assay [3], the target named is T2, His-tagged human PD-1 protein. Kind of assay: SPR (Biacore T200); IgG captured by anti-human Fc gamma, His-tagged human PD-1 as analyte, 1:1 model. As for the experimental part:
The binding affinity of the purified IgGs to human PD-1 protein were determined using a Surface Plasmon Resonance (SPR) biosensor, Biacore T200 (GE Healthcare). Antibodies were captured on the sensor chip pre-coated with anti-human Fc gamma. His-tagged human PD-1 protein was used as analyte. The data of dissociation (kd) and association (kₐ) rate constants were obtained using Biacore T200 evaluation software. The equilibrium dissociation constants (KD) were calculated from the ratio of kd over kₐ. Binding data for each antibody was processed and fitted to 1:1 interaction model using Biacore T200 evaluation software. All experimental data could be well fitted to the model.

The target in assay [4] is T3, human PD-1. Kind of assay: SPR; antigen form not stated.
Assay [5] has as its target T3, human PD-1. The assay is described as follows: SPR, multiple-cycle, crude Fab from E. coli; antigen form not stated; footnote: *out of the detection limit.
Text: as §1

Assay [6] deals with T3, human PD-1. Kind of assay: SPR, multiple-cycle, crude Fab from E. coli.
Text: as §1

For assay [7], the target named is T2, His-tagged human PD-1 protein. Kind of assay: SPR (Biacore T200); antibody captured by anti-human Fc gamma, His-tagged human PD-1 as analyte. The protocol:
Using the HCVR sequence and LCVR sequence of mAb PD1#3, a murine-human chimeric Fab (hereinafter “chimeric IgG”) was prepared which comprised the heavy chain sequence set forth in SEQ ID NO: 32 and the light chain sequence set forth in SEQ ID NO: 34. The heavy chain and light chain of the chimeric IgG are encoded by the nucleic acids set forth in SEQ ID NOs: 33 and 35, respectively. Nucleic acids encded by SEQ ID NO: 33 and SEQ ID NO: 35 which include a leader sequence were amplified and inserted into pTT5 to make an expression plasmid of the full-length IgG. The heavy chain and light chain expression plasmids were used to co-transfect 100 mL HEK293-6E cells. The recombinant IgG secreted into to media was purified using protein A affinity. The purified IgG migrated as ˜170 kDa band in SDS-PAGE under non-reducing conditions, ˜55 kDa and ˜30 kDA bands under reducing condition. The purity of the chimeric IgG is >90%, and the yield form the 100 mL culture was 0.46 mg. The binding affinity between the chimeric IgG and PD1/Fc fusion protein was determined using a Surface Plasmon Resonance (SPR) biosensor, Biacore T200 (GE Healthcare). PD1#3 was immobilized on the sensor chip pre-coated with anti-human Fc gamma. His-tagged human PD-1 protein was used as analyte.

T3 sequence (Q15116 25-167 limits assumed): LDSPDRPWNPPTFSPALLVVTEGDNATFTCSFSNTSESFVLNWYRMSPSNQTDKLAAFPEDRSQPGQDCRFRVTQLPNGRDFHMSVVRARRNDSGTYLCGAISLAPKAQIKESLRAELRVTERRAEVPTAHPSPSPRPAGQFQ

B1: PD1#1 (antibody, V domains shown)
VH: QVQLQQPGAELVMPGASVKMSCKASGYTITDCWMHWVKQRPGQGLEWIGAIDTSNSYTTYNQKFKGKATLTVDESSSTAYMQFNSLTSDDSAVYFCAISLQRPFDYWGQGTTLTVSS
VL: DIQMTQSPASLSASVGENVTITCRASENVYSYLAWYQQKEGKSPQLLVYNAKTLTGGVPSRFSGSGSGTQFSLRISSLQPEDFGSYYCLQHYGYPFTFGSGTKLEKK
notes: Murine hybridoma mAb purified on Protein A; also called mAb PD1#1
In the case of B1, the binding result with murine PD-1 is “no binding”.

B2: PD1#4 (antibody, V domains shown)
VH: EVRLVESGGGLVKPGGSLKVSCVASGFTFSRYGMSWVRQTPEKRLEWVATISGGGRDTYYPDSVKGRFTISRDNAKNNLYLQMSSLRSEDTALYYCVRQEDIVWFAYWGQGTLVTVSA
VL: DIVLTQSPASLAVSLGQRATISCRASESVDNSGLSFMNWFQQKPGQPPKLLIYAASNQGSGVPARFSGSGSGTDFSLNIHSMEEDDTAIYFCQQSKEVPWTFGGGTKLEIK
notes: Murine hybridoma mAb purified on Protein A; also called mAb PD1#4
Take B2: in the assay with murine PD-1, the binding result was “no binding”.

B3: AS05618 (Fab, V domains shown)
VH: EVQLVESGGGLVQPGGSLRLSCAASGFVFSRYDMAWVRQTPGKGLEWVSFISGGGSNTYYPDTVKGRFTISRDNSKNTLYLQMNSLRAEDTAVYYCISPYYYAMEYWGQGTTVTVSS
VL: DIQMTQSPSSISTSVGDRVTITCKASQDVDTAVAWYQQKPGKSPKLLIHWASTRHTGVPSRFSGSGSGTDFTLTISSLQPEDFADYFCQQYSTFPWTFGGGTKLEIK
notes: Humanized Fab-SASA clone from the phage library
As a reminder, the Kd is the concentration at which binding is half-saturated. The low end stands for a tighter complex, the high end for a looser complex. For orientation: koff means a measure of how fast the partners let go of each other. The low end stands for a long-lived complex, the high end for a short-lived complex. One may read the kon as the rate constant with which the complex forms. Read a high kon as faster complex formation. In assay [1], B3 came in with an equilibrium dissociation constant (Kd) of 0.41 nM, a koff of 0.000151 s⁻¹ and an on-rate (kon) of 369000 M⁻¹ s⁻¹.

B4: PD1-BM Ab (Fab) (Fab, V domains shown)
VH: EVQLVESGGGLVQPGGSLRLSCAASGFVFSRYDMAWVRQTPGKGLEWVAFISGGGSNTYYPDTVKGRFTISRDNSKNTLYLQMNSLRAEDTAVYYCISPYYYAMEYWGQGTTVTVSS
VL: DIQMTQSPSSISTSVGDRVTITCKASQDVDTAVAWYQQKPGKSPKLLIHWASTRHTGVPSRFSGSGSGTDFTLTLSSVQPEDLADYFCQQYSTFPWTFGGGTKLEIK
notes: Humanized Fab with all 14 back mutations; also called PD1-BM Fab
With B4, in assay [1], the Kd is 0.0564 nM, the off-rate constant (koff) is 1.78e-05 s⁻¹ and the kon was 315000 M⁻¹ s⁻¹. In the assay with human PD-1 [2], this molecule yielded a Kd of 0.15 nM, a koff of 5.5e-05 s⁻¹ and a kon of 360000 M⁻¹ s⁻¹.

B5: AS05617 (IgG) (antibody, V domains shown)
VH: EVQLVESGGGLVQPGGSLRLSCAASGFVFSRYDMAWVRQTPGKGLEWVSFISGGGSNTYYPDTVKGRFTISRDNSKNTLYLQMNSLRAEDTAVYYCISPYYYAMEYWGQGTTVTVSS
VL: DIQMTQSPSSISTSVGDRVTITCKASQDVDTAVAWYQQKPGKSPKLLIYWASTRHTGVPSRFSGSGSGTDFTLTISSLQPEDFADYFCQQYSTFPWTFGGGTKVEIKR
notes: Full-length humanized IgG from HEK293 cells
On to B5, for which, in assay [3], the dissociation constant (Kd) was found to be 1 nM, the koff was found to be 0.000183 s⁻¹ and the kon came to 183000 M⁻¹ s⁻¹.

B6: PD1-BM-min (IgG) (antibody, V domains shown)
VH: EVQLVESGGGLVQPGGSLRLSCAASGFVFSRYDMAWVRQAPGKGLEWVSFISGGGSNTYYPDTVKGRFTISRDNSKNTLYLQMNSLRAEDTAVYYCISPYYYAMEYWGQGTTVTVSS
VL: DIQMTQSPSSVSASVGDRVTITCKASQDVDTAVAWYQQKPGKAPKLLIYWASTRHTGVPSRFSGSGSGTDFTLTISSLQPEDFATYYCQQYSTFPWTFGGGTKVEIKR
notes: as for B5
For the molecule B6, in assay [3], binding was put at a Kd of 0.943 nM, the koff is 0.000263 s⁻¹ and the kon was found to be 279000 M⁻¹ s⁻¹.

B7: PD1-BM-min Ab (Fab) (Fab, V domains shown)
VH: EVQLVESGGGLVQPGGSLRLSCAASGFVFSRYDMAWVRQAPGKGLEWVSFISGGGSNTYYPDTVKGRFTISRDNSKNTLYLQMNSLRAEDTAVYYCISPYYYAMEYWGQGTTVTVSS
VL: DIQMTQSPSSVSASVGDRVTITCKASQDVDTAVAWYQQKPGKAPKLLIYWASTRHTGVPSRFSGSGSGTDFTLTISSLQPEDFATYYCQQYSTFPWTFGGGTKVEIK
notes: Humanized Fab with only the VH A97I and K98S back mutations; also called PD1-Grafted VH-A97I & K98S
With B7, in the assay with human PD-1 [4], binding was put at a Kd of 0.253 nM, the off-rate (koff) was 8.4e-05 s⁻¹ and the association rate constant (kon) turned out to be 332000 M⁻¹ s⁻¹.

B8: Fab 2 (Fab, V domains shown)
VH: EVQLVESGGGLVQPGGSLRLSCAASGFVFSRYDMAWVRQTPGKGLEWVSFISGGGSNTYYPDTVKGRFTISRDNSKNTLYLQMNSLRAEDTAVYYCISPYYYAMEYWGQGTTVTVSS
VL: DIQMTQSPSSISTSVGDRVTITCKASQDVDTAVAWYQQKPGKSPKLLIHWASTRHTGVPSRFSGSGSGTDFTLTLSSVQPEDLADYFCQQYSTFPWTFGGGTKLEIK
notes: Crude Fab from E. coli; also called PD1-BM VH-A49S
Turning to B8, in the assay with human PD-1 [5], the dissociation constant Kd is ≤ 0.025 nM and the off-rate constant (koff) is < 8.1e-06 s⁻¹. In the assay with human PD-1 [2], this molecule came in with an association rate constant (kon) of 320000 M⁻¹ s⁻¹.

B9: PD1-BM Ab (IgG) (antibody, V domains shown)
VH: EVQLVESGGGLVQPGGSLRLSCAASGFVFSRYDMAWVRQTPGKGLEWVAFISGGGSNTYYPDTVKGRFTISRDNSKNTLYLQMNSLRAEDTAVYYCISPYYYAMEYWGQGTTVTVSS
VL: DIQMTQSPSSISTSVGDRVTITCKASQDVDTAVAWYQQKPGKSPKLLIHWASTRHTGVPSRFSGSGSGTDFTLTLSSVQPEDLADYFCQQYSTFPWTFGGGTKLEIKR
notes: as for B5
For the molecule B9, in assay [3], the affinity, expressed as Kd, was 0.579 nM; the koff is 0.000139 s⁻¹; the association rate constant (kon) was found to be 241000 M⁻¹ s⁻¹.

B10: Fab 4 (Fab, V domains shown)
VH: EVQLVESGGGLVQPGGSLRLSCAASGFVFSRYDMAWVRQTPGKGLEWVAFISGGGSNTYYPDTVKGRFTISRDNSKNTLYLQMNSLRAEDTAVYYCIKPYYYAMEYWGQGTTVTVSS
VL: DIQMTQSPSSISTSVGDRVTITCKASQDVDTAVAWYQQKPGKSPKLLIHWASTRHTGVPSRFSGSGSGTDFTLTLSSVQPEDLADYFCQQYSTFPWTFGGGTKLEIK
notes: Crude Fab from E. coli; also called PD1-BM VH-S98K
For B10, the binding result with human PD-1 [6] is recorded as “no binding”.

B11: chimeric IgG (antibody, V domains shown)
VH: EVQLVESGGDLVKPGGSLKLSCAASGFVFSRYDMAWVRQTPEKRLEWVAFISGGGSNTYYPDTVKGRFTISRDNAKNTLYLQMTSLKSEDTAVYYCISPYYYAMEYWGQGTSVTVSS
VL: DIVMTQSHKFISTSVGDRVSITCKASQDVDTAVAWYQQKPGQSPKLLIHWASTRHTGVPDRFTGGGSGTDFTLTLSNVQSEDLADYFCQQYSTFPWTFGGGTRLEIKR
notes: Full-length IgG from HEK293-6E cells; also called murine-human chimeric antibody derived from PD1#3
In assay [3], B11 registered a Kd of 0.487 nM, a koff of 0.000129 s⁻¹ and an association rate constant (kon) of 265000 M⁻¹ s⁻¹. Also, the dissociation constant (Kd) in assay [7] was 0.48 nM.

B12: PD1#3 (antibody, V domains shown)
VH: EVQLVESGGDLVKPGGSLKLSCAASGFVFSRYDMAWVRQTPEKRLEWVAFISGGGSNTYYPDTVKGRFTISRDNAKNTLYLQMTSLKSEDTAVYYCISPYYYAMEYWGQGTSVTVSS
VL: DIVMTQSHKFISTSVGDRVSITCKASQDVDTAVAWYQQKPGQSPKLLIHWASTRHTGVPDRFTGGGSGTDFTLTLSNVQSEDLADYFCQQYSTFPWTFGGGTRLEIK
notes: Murine hybridoma mAb purified on Protein A; also called mAb PD1#3
With B12, the binding result in the assay with murine PD-1 was “no binding”.
